Experimental data from patent US20050085416A1, “Biologically active complex” (priority 2002, published 2005).
Where two headings read alike, the source gives them in different places.

Legend:
[1] = Ca2+ titration in the presence of chromophoric chelator quin 2; type: binding; details: for Ka, calcium association constant: 2 mM Tris/HCl, chelator quin 2; for Kd: read-out: KD, calcium
From the text: To study the Ca^2+ binding equilibrium, the proteins listed in table 1 including the D87A BAMLET obtained as described in Example 7, and HAMLET, was titrated with calcium in the presence of a chromophoric chelator, quin 2, for which the absorbance at 263 nm decreases (approx. 85%) upon Ca^2+-binding. The method relies on competition for calcium between the protein and chelator, and can be used to quantitate high affinity sites (ca. 10^7-5·10^9 M^−1 at low salt, and ca. 5 10^5-1·10^8 M^−1 at 0.15 NaCl) when quin 2 is the chelator. The exact concentration of the chelator solution (in the range of 25-30 μM) was calculated from the absorbance at 239.5 nm in the presence of excess calcium (using ε239.5=4.2×10^4 L mol^−1 cm^−1 for quin 2). Lyophilised protein was dissolved in calcium free (<1 μM Ca^2+) chelator solution at a concentration of 25-30 μM. The absorbance at 263 nm (A263) was recorded for the protein/chelator solution using a UV/Vis 920 spectrophotometer (GBC Scientific Equipment Pty Ltd, Victoria, Australia). Calcium solution (3 mM CaCl2 in 2 mM Tris/HCl, pH 7.5, with or without 0.15 M NaCl) was added in portions of 4 μl. A263 was recorded after each calcium addition.
A more concentrated Ca^2+ stock (10 mM) was used at the end of the titrations of the proteins in 0.15 M NaCl. The data was analysed by least squares fitting directly to the measured quantity, absorbance versus total calcium concentration, using the CaLigator software (Andre and Linse, 2002).

[2] = cited from earlier work
[3] = 20° C.; cited from earlier work

B1: α-lac human: Native human α-lactalbumin purified from human milk (protein, UniProt P00709 20-142, looked up)
Alpha-lactalbumin: KQFTKCELSQLLKDIDGYGGIALPELICTMFHTSGYDTQAIVENNESTEYGLFQISNKLWCKSSQVPQSRNICDISCDKFLDDDITDDIMCAKKILDIKGIDYWLAHKALCTEKLEQWLCEKL
[1]
  factor of decrease of Ca2+ affinity between low and physiological ionic strength: 200
[1]; 150 mM NaCl (physiological salt)
  Ka, calcium association constant: 8.3e+06 M⁻¹
[1]; 150 mM NaCl (physiological salt), listed as α-lactalbumin
  Ka, calcium association constant: 8.3e+06 M⁻¹
[1]; low salt (no added salt)
  Ka, calcium association constant: 1.8e+09 M⁻¹
[1]; low salt (no added salt), listed as α-lactalbumin
  Ka, calcium association constant: 1.8e+09 M⁻¹
[1]; low salt
  Kd: 0.56 nM
[1]; physiological salt, 0.15 M NaCl
  Kd: 120 nM
[2]; 5 mM Tris, 0.1 mM EDTA, pH 7.2, 298 K, CD 270 nm
  Ka: 3e+08 M⁻¹
[2]; H2O, 100 mM KCl, pH 7, 294 K, EDTA, 43Ca-NMR
  Ka: 2e+07 M⁻¹
[3]
  Ka for Na+: 100 M⁻¹
